Measured values published in a protein production outcome set (Wang et al. 2014).

Assay: label from the status in PepcDB records

MLIGPYTHDAFMEEARKFHGYPAPGLIIGGYMVEMARRALPEGILFDAISETGQCLPDAVQMLTPCTIGNGWLRIRNFGLYALSLFDKHTGVGVRVHIDSQKLERFPEIKAWFLKLKPKREQDTERLQQEIREAAFDLLTLRPVTIRPDALGHGGKGGTIVACPLCGEYHPSAFGGICRSCQGESPYEVGPGLSFPGQPELRAVPVEEAVGKHALHDMTRIVPGESKGAEFVAGQELGAGDVCRLQMMGRNRVYVREETGDMQGWVHEDEAARAFGELMPGDGIEPEGPVREGKINFRATRDGVLVVDTRRLEQFNLVPDVMCATRHTHGVVLAGTRVAGTRAIPLYLSTLNLAKATTLLEGGPLFSVAPMRKAKVGVLVTGTEVFRGIIEDKFAPIITQKANQLGCDMAGTVIAPDDAPLITRGVHDLLAAGADLIVTTAGLSVDPDDMTRKGLLDAGLTEMLHGVPVLPGTMTLIGRIGGAQVIGVPACALFFKTTALDLLLPRLLAGLSVTRLDLARMGHGGLCMECRSCSFPKCPFGRG
protein production: failed

MNRSLWTQWSIASVIVLFCAFCLYSPAHAGVDEDLVRAVEDNKTHRVRDLLTKGASPDARDLQSETALMLAARNKNPEMGGLLLEAGANPDLRNKYGETATMLACYYGQLDLVKRLYAKGAKIDHDGWNPLIYAASKGYKEIVEFLLNYGVRIDAATDNGTTALMMAVRGNHYDTVELLLKHGANALIRNEADGTALGWARKQGHTSIVQLLTRNGTAD
protein production: failed

MASDAPTGHVSDLDWLMSGLVQRVPHTTSAVLLSCDGLVKSVHGLDPDSADHMAALASGLYSLGRSAGIRFGDGGDVRQVVVELDSTLLFVSTAGSGTCLAVLAGREADAAVLGYEMAMLVKSVRPYLMTAPRQAAAQPPAMRP
protein production: failed

MGKINTDPAATSGIKVLDRAVSIMLAVAERPLSLTELCDVTNLPRATAHRLATALETHNILTRTSDGKWTIGAVLSSLGA
protein production: failed

MDKIRTLLLRLPRRQKRVLQVVTDILLVWVALWMAFVVRLGFDDLNNPFIVHFWLFASAPIVAIPLFIRFGMYRAVMRYFGNDALIAIVKAVTLSALTLALVVYVYSNHQTVVPRSIVFNYWWLSMVMIGGLRLAMRQYFLGDWFTTAQHVPFTNRDDGLPKVAIYGAGAAGNQLVAALRLGRLMRPVAFIDDDGSIADRMIAGLQVYKPKHLQQMIDDTGAEEILLAIPSSSRSRRREILGYLEGFPLHVRSVPGFMDLASGRVKVDDIQEVDIADLLGRDAVPAQVDLLAHCIKGQTVLVTGAGGSIGSELCRQILLQGPSTLILLDHSEFNLYSILSELEQRVSRESRLVKLLPILGSVRNYEKLLSVMRTWSVDTVYHAAAYKHVPMVEHNIAEGVLNNVMGTLNTAQAALQCGVANFVLISTDKAVRPTNVMGSTKRLAELTLQALSKELAPVLFDDLSNVSRVNKTRFTMVRFGNVLGSSGSVIPLFHKQIKSGGPLTVTHPKITRYFMTIPEAAQLVIQAGSMGQGGDVFVLDMGEPVRIVELAEKMIHLSGLSVRSEKNPHGDIAIEFTGLRPGEKLYEELLIGDNVAATQHPMIMSANEDHLPWETLKLKLAELLAALELDDYARVRQLLRETVSGYTPDGEIVDWVYQQRRLKP
protein production: failed

MYAIAEDTLPARVLKELLLYRRRYPEHRQSASEADEIRRIEQVQLPRIAAFIEAGEPIEFVLPAFPAKSPNPGKVLDSRPDMAERLSLSFLNHLCQRIQLFYAPGAKITVCSDGRVFGDLVRIGDAHISAYQDALRLMIEEIGATHIGVFNLEDVRAFEAQRDNHEQLRQLLIGGYAEPLESIRETLLASEEGLLLYRAITRFLYEDGLTPDYQGSKTALQRDAKERAYGVIQRSWAWGALLADQFPRAIRLSIHPQPADSLKFGIHMMPTRDDWLTPWHGVAVNTEDRFVLMKRSEVLELGGELVQINGQPSHYRLPARAARRAAVALEHHHHHH
protein production: failed

MSVLDLPELALDCILDLLPPSGLCSMARVCSSLRERCVSDHLWEKHLKTKWGKILGPAAHREWQCYISSSTYHLDSPHHQTGNLGFAKIISLIRSLSSVFREDKQRRGYASSLPLDSSMSCYLSLETGRFWFPAQVYNRENGHVGFMLSCYDAELSYDTHTDTFQARYPPHGRRASAIEKGVTWDRIRAAPIDASPHLLHVSDSLKELKPGDHIEIQWRRNKEFPYGK
protein production: failed

MGNNKNLHGHLFALTANVMWGLMSPIGKSALQEFSAISVTTFRMVGAAAAFWILSIFCKQEHVDHRDMLKIFFASLFALVFNQGIFIFGLSMTSPIDASIVTTTLPIVTMIVAAIYLKEPITNKKVLGIFVGAMGALILIMSSQAASSGNGSLIGDLLCLVAQISFSIYLTVFKGLSQRYSAVTINKWMFIYASMCYIPFSYQDISVIQWTSIPMVAILQVLYVVLGGSFLAYLCIMTAQKLLRPTVVSMYNYMQPIVATIAAILMGIGSFGWEKGIAITLVFLGVYIVTQSKSKADFEKAGKEL
protein production: failed

MSPIVSVPDITAPVENVPAILPKVVPGELIVNKPTGGDSDELFQYLVDILASPVYDVAIESPLELAEKLSDRLGVNFYIKREDKQRVFSFKLRGAYNMMSNLSREELDKGVITASAGNHAQGVALAGQRLNCVAKIVMPTTTPQIKIDAVRALGGDVVLYGKTFDEAQTHALELSEKDGLKYIPPFDDPGVIKGQGTIGTEINRQLKDIHAVFIPVGGGGLIAGVATFFKQIAPNTKIIGVEPYGAASMTLSLHEGHRVKLSNVDTFADGVAVALVGEYTFAKCQELIDGMVLVANDGISAAIKDVYDEGRNILETSGAVAIAGAAAYCEFYKIKNENIVAIASGANMDFSKLHKVTELAGLGSGKEALLATFMVEQQGSFKTFVGLVGSLNFTELTYRFTSERKNALILYRVNVDKESDLEKMIEDMKSSNMTTLNLSHNELVVDHLKHLVGGSANISDEIFGEFIVPEKAETLKTFLDAFSPRNITLCRYRNQGDINASLLMGFQVPQAEMDEFKNQADKLGYPYELDNYNEAFNLVVSE
protein production: not failed

MAAKKDYYAILGVPRNATQEEIKRAYKRLARQYHPDVNKSPEAEEKFKEINEAYAVLSDPEKRRIYDTYGTTEAPPPPPPGGYDFSGFDVEDFSEFFQELFGPGLFGGFGRRSRKGRDLRAELPLTLEEAFHGGERVVEVAGRRVSVRIPPGVREGSVIRVPGMGGQGNPPGDLLLVVRLLPHPVFRLEGQDLYATLDVPAPIAVVGGKVRAMTLEGPVEVTIPPRTQAGRKLRLRGKGFPGPAGRGDLYLEVRITIPERLTPEEEALWKKLAEAYYARA
protein production: failed

MTNIIKIRASVFIPMSWTEAKMDMETGQVIQFEGDSREFTPHAVNTMRSRVEQEVVVDFYKQEVFSYANTGITTEKVISPDGSVNKRTGKASTENIVCTDIVWNSGGVQFKMSASASNPLNVYAPPVDYVLNVCVKKDGSIDVQGEHDGFPCFEFYKQVDFGPFEKIYTHDFRETGDTAAALGGNMDYSFTKRL
protein production: not failed

MMMIFAVLGIFDFLRGEDEGESLEKYLRKLEDLLEEEFDTLVRIAGFYAEEGDTREALDYLERAYRVASEMNDEELMAFALDSMGDVYLSDRKVKTAMEYFMEALRIYTSVNSPLRADLREKIKEVEKIREAMDIASINRLREESESGMPEVDLEVIEPLLNRLVDSVQSLTLYEAGSYEDSISQIMEAYQIARDIGDTSTEASLQLLLGLYSLKNEDFDESRRYLKKAEALFRKTNNELGLAVALVLLGTLDFIRNNADGVASSFRAAVEILQKLDEKELESVTLELLNTLYSF
protein production: failed

MIHDVDPTNDKYPAALRILHWVRALLTLGLIAAGWMMTVLADTVTEKFTLLYPWHKSFGVLVFLIVLAQLAIRAMSRLPGPAPLPAQERLLSQAVHVAMYALLLLVPLMGYAMSSSFTDSDGVFFFGIHLPELLPKDDDRFRLFQFLHKTLAYSLLALVILHVAGALKHRYFDKDRRTDVLPRII
protein production: failed

MAEKPKLHYFNARGRMESTRWLLAAAGVEFEEKFIKSAEDLDKLRNDGYLMFQQVPMVEIDGMKLVQTRAVLNYIASKYNLYGKDIKERALIDMYIEGIADLGEMILLLPVCPPEEKDAKLALIKEKIKNRYFPAFEKVLKSHGQDYLVGNKLSRADIHLVELLYYVEELDSSLISSFPLLKALKTRISNLPTVKKFLQPGSPRKPPMDEKSLEEARKIFRF
protein production: not failed

MNQHSFSLDDYYKSLINLDGMNDYYRYFIGLNGIIFPLLLIMSYPSVINLATKASFLIMLVGACCVLIDNWNRKSIAYRLYVELYENEYLANSDYKAGKVFVNLIFYVVSIYLISGVFGVL
protein production: failed

MDAAHRHGVPVLGNIFLPPVAYGGQLQWTRDLVQKDATGHYPLAAQLVAVADAYGFDGWFVNAETSGGNTALATDMRGFLQELKALGTAKGQRVTWYDSMTATGSVSWQGALNSQNQAFFQAADSMFVDFRWSKSTLASSGTLAGQLGRSRYELWAGVDVESNGTSTSVNWDAIVPSASAHVVSLGFYRPEWTRNHLPANRTPGDFHAADDLFWTGASLDPAKPNTTASWRAPALRVADRSTVDSLPFATVFNTGHGLKWYEGGEVTSDTAWNHLGLQDRLPSRRWIVRTSGARPSVTFDFADAWRGGSSVLVAGTLGAPATLDLYETRLPVGSSETVVELTHRTDAGSAQIELAVATAEPSAPGQAPSYTYFPVSSGDGWGTSTVRLTGLSGTVRTLAVRLTGSGSPVRWRLGALAVKNAPAEPAAPTGLRVTDADGGSLRFSWQPAAGEVRHYELHRVLADGTRRFLGGTCQCAYYVAGLAAEQGESAARFELRAVGELYTESTATTTTHPW
protein production: failed

MAGKLDPYRRKRHFGATPEPEGAHGHHAKAGAKPAARASARGTHPLRFVIQEHHARRLHYDFRLELDGTLKSWAVPKGPSFDPSVKRLAVHVEDHPLEYASFEGQIPEGHYGAGSVVVWDEGTWTPDGGVAQAREGYRAGKLTFRLDGEKLHGGWALVRSGRQEGRQEQWLLIKERDDDARSMDEFDVVGERPGSVHDGAASARADAKNGSARGSRSGQREKSGTSAARHDDHRHDGHAGTPIDPSRIEGAVRAPLPEHVAPQLATLVDGPPTQGDWCYELKFDGYRILARISGKGARRHVKLMTREGRDWTAKLRAQRDALAALDVDAAWLDGEAVVLGKNGLPDFQALQNAFGGGHSDEITLFVFDLPYLDGYDLRDAPLTARRALLEPLFADSDPTRLRFSPDLGNDVASLIASACDTGLEGLIGKRAESRYRAGRSPAWIKLKCRRRQEFVIGGYTEPSGSRHGFGALLLGVHEPAADGKRRRGPGPLRYVGRVGTGFDTRMLDRLTPILRKHERDTMPFDPPPRERSRTPVHWIEPVLVAECEFAEWTGDGIVRQAAFIALREDKPAARIVREVPKHTETEVQMEQRQTTRHERHKPKGAARAERDTSDASDGKHPARSRGSRRAEADDTGPDQLGRVRISHPERVIDSHSGTRKIDLARYWQWVAPWLLRDLKGRPVSLVRAPGDISGELFFQKHAERREIPFVTQHEGLDPGHGPLLSLDSVDALLGAAQMGTIELHTWNAHASNIERPDRIVFDLDPDPALPWSAMIDAAQLVRGLLDELGLISFCKTSGGKGLHVVVPITRHMGWDEVKDFSRAVAQHVAGALPDRFTATMGPKHRRGKIFIDYLRNGRGASTIAAYSVRARPGLGVSVPLRWDEVPDTTGGAQWTIDTLHERLDRLKRDPWDGYDDTRQRITAQMRARLGTS
protein production: failed

MTDFPTSLTSPGNRCEGCQQSQPLGFDFSFAYQPIVDLRDHSVFAHEALVRGVNGEGAGTVLGQVNDSNRYRFDQRCRTQAITLAAQLGMQSHLSINFMPNAVYRPELCIRSTLEAARAQRFPLDRLIFETLESQHVDNYRHLTNILREYREFGFKTAIDDFGSGYSGLNLLADFQPDLIKLDMALVRDVDQDRVRQAIIRAIVTMCAELGVTVIAEGIESAGERDFLSDCGIYLMQGYWFAKPAFKALAEVPAAAWNS
protein production: failed

MKQNLVAVDILLNQMRDRNIKLDSFVVSAIIETNCDRCRTEGASLAFDYSLEMGIHLKKSAYLALIGNFLRSNELPKVIEVVKEMVKAQHSLGCYQGAMLIHRLGFGRRPRLAADVFDLLPDDQKGVAAYTALMDVYISAGSPEKAMKILREMREREIMPSLGTYDVLLSGLEKTSDFQKEVALLRKEKKSLVASARFRENVHVEDKICDLLFATNLL
protein production: failed

ANLISPVCDMGSAVTAPVYAAILAYRDAVTQILGAPADFAQMMADEAISQILDLMRNEGIKNMEDKLNPKALTGTADSMCFGPLADILPASLKVLEKHANENKCECGCSIKP
protein production: failed
